Patent US20230322924A1 (Janssen / Centocor, published 2023)

Columns and labels:
[1] = target: T1, human TMEFF2 extracellular domain (ECD) (human, UniProt Q9UIK5 41-320); experiment: KinExA solution equilibrium affinity
T1 construct: also called TMEFF2-ECD
T1 sequence: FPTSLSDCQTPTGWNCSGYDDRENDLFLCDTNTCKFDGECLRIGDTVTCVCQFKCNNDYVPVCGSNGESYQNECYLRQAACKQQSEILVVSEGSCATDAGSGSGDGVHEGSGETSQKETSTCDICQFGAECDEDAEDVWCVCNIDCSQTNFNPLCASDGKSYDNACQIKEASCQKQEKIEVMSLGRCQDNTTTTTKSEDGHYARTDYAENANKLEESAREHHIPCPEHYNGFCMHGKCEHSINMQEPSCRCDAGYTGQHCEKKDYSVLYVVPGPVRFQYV
Procedure: Serial dilutions of human TMEFF2 extracellular domain (ECD) were prepared with a constant concentration of anti-TMEFF2 mAb in 10 mM HEPES, 150 mM NaCL, 0.05% surfactant P20, pH 7.4, 0.1% BSA, and 0.02% NaN3. The reaction mixtures were incubated at RT until the binding interactions reached equilibrium. The duration of the incubation was determined using KinExA software simulation. Beads were prepared by direct covalent immobilization of TMEFF2-ECD by amine-coupling on pre-activated beads composed of bis-acrylamide/azlactone copolymer (Pierce Biotechnology, Inc.). After incubation the samples were run on the KinExA instrument to assess free antibody in the mixture by passing the mixture though the TMEFF2-modified beads, and detecting the captured antibody using a fluorescently labeled secondary antibody. The data was fit with a 1:1 binding model using the KinExA Pro software.

[2] = target: T2, TMEW1 (TMEFF2-FL-ECD-His-Avitag) (human, UniProt Q9UIK5 41-320); experiment: Biacore 8K SPR, mAb captured on anti-human Fc, single cycle kinetics
T2 construct: Human TMEFF2 ECD with C-terminal G3S, 6xHis tag and Avi-tag, all in the entry; also called TMEFF2 ECD
T2 sequence: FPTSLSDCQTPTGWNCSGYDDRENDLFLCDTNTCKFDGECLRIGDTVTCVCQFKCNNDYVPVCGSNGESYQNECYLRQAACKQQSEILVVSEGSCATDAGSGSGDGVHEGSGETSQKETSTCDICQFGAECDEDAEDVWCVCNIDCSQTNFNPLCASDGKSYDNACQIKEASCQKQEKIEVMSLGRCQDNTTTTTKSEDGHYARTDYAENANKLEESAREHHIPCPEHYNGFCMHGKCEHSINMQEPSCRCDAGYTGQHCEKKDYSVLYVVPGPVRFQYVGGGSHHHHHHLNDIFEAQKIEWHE
Procedure: The binding of anti-TMEFF2 mAbs to human TMEFF2 ECD was measured by Biacore 8K SPR. The format of the assay was to capture the mAbs using a high density anti-human Fc surface, then inject human TMEFF2 concentration titration using a single cycle kinetics method. […] The mAbs were captured on the anti-human Fc IgG surface at 0.5 μg/ml (˜200-300 RU) on flow cell 2. The running buffer was then changed to HBSP+100 ug/ml BSA. TMEFF2 ECD at 30 nM concentration in 3-fold dilution series was injected from low to high concentration using single cycle kinetics method. The off-rate was monitored 30 minutes after the last or highest concentration injection and then the surface was regenerated using 0.8% phosphoric acid (Bio-Rad). A buffer blank run, capturing the same mAbs and using the same conditions of sample run was also completed. The raw data were processed by subtracting two sets of reference data from the response data: 1) reference flow cell 1 subtracted from sample flow cell 2 and 2) buffer blank run from experimental run. The processed data at all concentrations for each mAb were globally fit to a 1:1 simple Langmuir binding model to extract estimates of the kinetic (kon, koff) and affinity (KD) constants.

B-Defensin-3 = target: T3, B-Defensin-3; experiment: Biacore 8K non-specific binding test, antibody over immobilised protein
T3 construct: also called β-defensin
T3 sequence (P81534 23-67): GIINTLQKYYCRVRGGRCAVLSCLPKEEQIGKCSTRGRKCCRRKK
Procedure: (§1) Non-specific binding of the lead molecule to unrelated surfaces is determined by biosensor technology (Biacore 8K). Antibody is passed over SPR surfaces coated with unrelated proteins. […] Irrelevant surfaces include negatively charged protein (Soy Trypsin Inhibitor), positively charged protein (Lysozyme and β-defensin), hydrophobic (Rh-integrin a4b7), human IgG, sticky protein (Rh-CD19). Proper controls are used in this experiment. Lead is flown over two surfaces, one is a blank and the other has a molecule directly immobilized. The response unit (RU) level is determined by subtracting the blank RU from the test surface RU. […] A response unit ≥100 predicts high risks for non-specific binding to charged/hydrophobic/IgG surfaces which would create challenges during manufacturing and translate to poor PK properties.

Human IgG = experiment: as above
Procedure: as §1

Lysozyme = experiment: as above
Lysozyme, sequence (P00698 19-147): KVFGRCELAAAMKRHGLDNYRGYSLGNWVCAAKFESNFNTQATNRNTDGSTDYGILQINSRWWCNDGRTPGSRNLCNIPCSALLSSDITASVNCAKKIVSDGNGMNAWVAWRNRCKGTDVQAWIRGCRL
Procedure: as §1

rh-Integrin a4b7 = rh-Integrin a4b7 (UniProt P13612 34-977; P26010 20-723, limits assumed); experiment: as above
Procedure: as §1

rh-CD19 = target: T4, rh-CD19 (UniProt P15391 20-291, limits assumed); experiment: as above
T4 sequence (looked up): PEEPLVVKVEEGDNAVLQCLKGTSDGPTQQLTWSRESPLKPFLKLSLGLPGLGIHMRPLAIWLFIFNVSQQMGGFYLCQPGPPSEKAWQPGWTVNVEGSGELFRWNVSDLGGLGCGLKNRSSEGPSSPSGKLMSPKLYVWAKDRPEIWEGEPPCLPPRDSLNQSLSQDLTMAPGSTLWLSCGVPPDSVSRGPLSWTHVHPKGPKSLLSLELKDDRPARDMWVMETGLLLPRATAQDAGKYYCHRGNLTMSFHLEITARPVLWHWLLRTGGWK
Procedure: as §1

Human CD33 ECD-HSA [3] = target: T5, Human CD33 ECD-HSA (human); experiment: SPRi off-rate screen (IBIS MX96)
T5 construct: CD33 ECD fused at the C-terminus to monomeric HSA (C58S) and a six-histidine tag; also called C33W2; huCD33 ECD-HSA

Human CD33-C2-HSA = target: T6, Human CD33-C2-HSA (human); experiment: SPRi off-rate screen (IBIS MX96)
T6 construct: C2 domain of human CD33 fused to HSA; also called C33W4; huCD33-C2-HSA

Cyno CD33 full length = target: T7, Cyno CD33 full length (cynomolgus monkey); experiment: flow cytometry on HEK293F cells expressing cyno CD33
T7 construct: also called cyCD33
Procedure: (§2) The purified antibodies were assessed for binding to stably transfected HEK293F cells expressing human CD33 or cyno CD33 (generation described above) along with the parental HEK293F as negative control. Cells were harvested from tissue culture flasks using non-enzymatic dissociation buffer (Thermo Scientific). The flasks were rinsed twice with PBS and dissociation buffer was added to the flask, and the flask was incubated for 10 minutes at 37° C. until the cells became non-adherent. The cells were centrifuged at 300 g for 5 minutes and resuspended at 1.0×10⁶ cells/ml in staining buffer (Becton Dickinson; Franklin Lakes, NJ). 50,000 cells/well of each cell type was plated in 50 μl of staining buffer in round bottom plates (Becton Dickinson). […] 100 μl staining buffer was added to all wells of each plate, the plates were spun at 300 g for 5 min, the buffer was removed, 200 μl staining buffer was added to all wells of each plate, the plates were spun at 300 g for 5 min, and the buffer was removed. 50 μl of 2 μg/ml of Goat-anti-human Fc AF647 secondary antibody (Jackson Immunoresearch; West Grove, PA) was added to all wells of the plates, and the plates were incubated for 30 min at 4° C. 100 μl staining buffer was added to all wells of the plates, the plates were spun at 300 g for 5 min, and the buffer was removed. 200 μl running buffer (running buffer is Staining buffer, 1 mM EDTA, 0.1% Pluronic Acid) was added to all wells of the plates, the plates were spun at 300 g for 5 min, and the buffer was removed. 30 μl running buffer containing Sytox Green live/dead dye (ThermoFisher) was added to all wells with cells and the plates were read on an iQue IntelliCyt flow cytometer. Cells were gated on forward vs. side scatter to eliminate debris, then on singlets and then on live cells which excluded the Sytox stain. Antibody binding was assessed by the mean fluorescence intensity in the AF647 channel.
(§3) The OmniMouse panel (8 mAbs total) was generated separately and characterized further for binding to cells.

Human CD33 full length = target: T8, Human CD33 full length (human, UniProt P20138 18-364); experiment: flow cytometry on HEK293F cells expressing human CD33
T8 construct: also called huCD33
T8 sequence (P20138 18-364 limits assumed): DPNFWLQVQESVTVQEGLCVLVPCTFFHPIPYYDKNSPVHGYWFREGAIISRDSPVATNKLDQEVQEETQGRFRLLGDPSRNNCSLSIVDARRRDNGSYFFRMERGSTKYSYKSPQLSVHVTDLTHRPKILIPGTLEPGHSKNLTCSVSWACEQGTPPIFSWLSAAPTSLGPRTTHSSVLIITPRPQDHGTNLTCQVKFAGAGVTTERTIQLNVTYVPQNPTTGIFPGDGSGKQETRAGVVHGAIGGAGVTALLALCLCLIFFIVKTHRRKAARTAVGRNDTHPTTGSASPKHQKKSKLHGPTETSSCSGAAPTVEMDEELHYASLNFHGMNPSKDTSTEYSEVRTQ
Procedure: as §2, §3

Human CD33 ECD-HSA [4] = target: T5, Human CD33 ECD-HSA; experiment: ProteOn SPR, mAb captured on anti-human Fc, antigen as analyte
Procedure: (§4) The panel of mAbs was then further characterized for full affinity analysis as well as epitope binning. The binding of anti-CD33 mAbs to recombinant human CD33 ECD-HSA (C33W2) and cyno CD33 ECD-HSA (C33W1) was measured by ProteOn SPR (Bio-Rad). […] Different mAbs were captured on the anti-human Fc IgG surface at 0.25 or 0.5 μg/ml (160-300 RU) in vertical ligand orientation, with the 6th ligand channel as no ligand surface control. Human and cyno CD33-HSA proteins at 0.3 μM concentration in 3-fold dilution series of 5 concentrations flew in as analyte to bind to captured mAbs in the horizontal orientation. A buffer sample was also injected in the 6th channel to monitor the dissociation of captured mAb and baseline stability. […] The raw biding data were processed by double referencing after subtracting the response data from: 1) the inter-spot to correct for the non-specific interactions between the Ag and the empty chip surface; 2) the buffer channel to correct for baseline drifting due to the dissociation of captured mAb surface over time. The processed data at all antigen concentrations for each mAb were globally fit to a 1:1 simple Langmuir binding model to extract estimates of the kinetic (kₒₙ, koff) and affinity (Kd) constants.

Cyno CD33 ECD-HSA = target: T9, Cyno CD33 ECD-HSA (cynomolgus monkey); experiment: as above
T9 construct: Cyno CD33 ECD fused to HSA and a six-histidine tag; also called C33W1
Procedure: as §4

B1: TMEB762 (antibody, human IgG4 S228P, kappa, F234A L235A, V domains shown)
VH: EVQLLESGGGLVQPGGSLRLSCAASGFTFSSYSMSWVRQAPGKGLEWVSVISGSGGFTDYADSVKGRFTISRDNSKNTLYLQMNSLRAEDTAVYYCARMPLNSPHDYWGQGTLVTVSS
VL: DIQMTQSPSSLSASVGDRVTITCRASQGIRNDLGWYQQKPGKAPKLLIYAASSLQSGVPSRFSGSGSGTDFTLTISSLQPEDFATYYCLQDYNYPLTFGGGTKVEIKR
notes: IgG4 PAA anti-TMEFF2; re-engineered variant of TMEB675; also called TMEH459/DL3L129
B1 was tested, and the Kd [1] was 0.0461 nM, the Kd [2] was 0.32 nM and the koff [2] was 0.000174 s⁻¹. For the same binder, the kon [2] was 541000 M⁻¹ s⁻¹, the “response units (RU)” value (B-Defensin-3) was 4.1 RU and the “response units (RU)” value (Human IgG) was 8.4 RU. For the same binder, the “response units (RU)” value (Lysozyme) was 4.6 RU, the “response units (RU)” value (rh-Integrin a4b7) was 0 RU and the “response units (RU)” value (rh-CD19) was 3.3 RU.

B2: C33B912 (antibody, V domains shown)
VH: EVQLVESGGGLVQPGRSLRLSCAASGFTFDDYAMHWVRQAPGKGLEWVSGIGWSGGSIVYADSVKGRFTISRDNAKNSLYLQMNSLRAEDTALYYCAKDSPYGDFFDYWGQGTLVTVSS
VL: DIVMTQSPDSLAVSLGERATINCKSSQTVFYSSNNKNYLAWYQQKPGQPPKLLISWASTRKSGVPDRFSGSGSGTDFTLTVSSLQAEDVAVYYCQHYYSTPYTFGQGTKLEIK
notes: OMNIMouse-derived anti-CD33 mAb; also called C33H252/C33L118; C33F550
With B2 the koff (Human CD33 ECD-HSA [3]) was 1.29e-05 s⁻¹, the koff (Human CD33-C2-HSA) was 6.68e-05 s⁻¹ and the “MFI at 0 nM (background)” value (Cyno CD33 full length) was 125 MFI. For the same binder, the “MFI at 0.6 nM” value (Cyno CD33 full length) was 1730 MFI, the “MFI at 6 nM” value (Cyno CD33 full length) was 7270 MFI and the “MFI at 60 nM” value (Cyno CD33 full length) was 15100 MFI. For the same binder, the “MFI at 0 nM (background)” value (Human CD33 full length) was 150 MFI, the “MFI at 0.6 nM” value (Human CD33 full length) was 15700 MFI and the “MFI at 6 nM” value (Human CD33 full length) was 101000 MFI. For the same binder, the “MFI at 60 nM” value (Human CD33 full length) was 237000 MFI, the Kd (Human CD33 ECD-HSA [4]) was 0.0302 nM and the koff (Human CD33 ECD-HSA [4]) was 4.29e-05 s⁻¹. It also gave a kon (Human CD33 ECD-HSA [4]) of 1.42e+06 M⁻¹ s⁻¹, a Kd (Cyno CD33 ECD-HSA) of 0.433 nM and a koff (Cyno CD33 ECD-HSA) of 0.00065 s⁻¹. It also gave a kon (Cyno CD33 ECD-HSA) of 1.5e+06 M⁻¹ s⁻¹.
